Results taken from paper PMC6906530, “Structural studies of the MMP-3 interaction with triple-helical collagen introduce new roles for the enzyme in tissue remodelling” (Scientific Reports, 2019).

Assays:
[1] = molecular target: collagen I (Guinea pig dermis) (Guinea pig)
collagen I = settings: 10:1 molar excess over collagen; cited from earlier work
Text: In both models of collagen fibril assembly, a number of MMP-3 binding sites are concealed, consistent with the observed inhibition of fibrillogenesis in the presence of MMP-3 (Fig. 4g).

Sequence of collagen I (Guinea pig dermis) (Guinea pig) (main, as listed by the source, chain 1 of 2): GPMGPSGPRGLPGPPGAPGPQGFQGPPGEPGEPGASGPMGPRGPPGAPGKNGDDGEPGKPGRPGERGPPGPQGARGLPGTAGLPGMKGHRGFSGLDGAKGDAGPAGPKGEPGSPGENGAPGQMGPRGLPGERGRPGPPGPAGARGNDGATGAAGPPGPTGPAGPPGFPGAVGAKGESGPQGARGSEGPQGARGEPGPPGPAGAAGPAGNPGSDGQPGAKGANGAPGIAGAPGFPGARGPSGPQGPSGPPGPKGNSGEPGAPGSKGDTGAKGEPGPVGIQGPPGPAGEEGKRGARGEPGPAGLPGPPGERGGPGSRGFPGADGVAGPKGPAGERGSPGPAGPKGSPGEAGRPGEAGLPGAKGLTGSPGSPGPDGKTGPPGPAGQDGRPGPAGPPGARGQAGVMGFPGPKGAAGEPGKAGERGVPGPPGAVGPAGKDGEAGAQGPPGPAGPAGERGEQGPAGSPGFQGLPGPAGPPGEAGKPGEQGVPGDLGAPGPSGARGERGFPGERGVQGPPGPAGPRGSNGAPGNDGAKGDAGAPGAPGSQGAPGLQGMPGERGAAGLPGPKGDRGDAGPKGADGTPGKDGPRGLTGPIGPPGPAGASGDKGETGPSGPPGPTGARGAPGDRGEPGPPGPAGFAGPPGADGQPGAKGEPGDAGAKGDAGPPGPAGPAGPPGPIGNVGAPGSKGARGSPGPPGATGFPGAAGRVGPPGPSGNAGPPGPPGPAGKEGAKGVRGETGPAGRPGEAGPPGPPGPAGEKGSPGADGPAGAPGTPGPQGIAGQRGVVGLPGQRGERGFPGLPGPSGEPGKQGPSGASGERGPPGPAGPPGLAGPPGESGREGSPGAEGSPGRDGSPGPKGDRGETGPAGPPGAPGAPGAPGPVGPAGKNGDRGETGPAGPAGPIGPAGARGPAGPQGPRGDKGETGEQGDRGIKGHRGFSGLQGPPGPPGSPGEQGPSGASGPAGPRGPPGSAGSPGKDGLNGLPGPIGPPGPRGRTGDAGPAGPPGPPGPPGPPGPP
Sequence of collagen I (Guinea pig dermis) (Guinea pig) (partner, as listed by the source, chain 2 of 2): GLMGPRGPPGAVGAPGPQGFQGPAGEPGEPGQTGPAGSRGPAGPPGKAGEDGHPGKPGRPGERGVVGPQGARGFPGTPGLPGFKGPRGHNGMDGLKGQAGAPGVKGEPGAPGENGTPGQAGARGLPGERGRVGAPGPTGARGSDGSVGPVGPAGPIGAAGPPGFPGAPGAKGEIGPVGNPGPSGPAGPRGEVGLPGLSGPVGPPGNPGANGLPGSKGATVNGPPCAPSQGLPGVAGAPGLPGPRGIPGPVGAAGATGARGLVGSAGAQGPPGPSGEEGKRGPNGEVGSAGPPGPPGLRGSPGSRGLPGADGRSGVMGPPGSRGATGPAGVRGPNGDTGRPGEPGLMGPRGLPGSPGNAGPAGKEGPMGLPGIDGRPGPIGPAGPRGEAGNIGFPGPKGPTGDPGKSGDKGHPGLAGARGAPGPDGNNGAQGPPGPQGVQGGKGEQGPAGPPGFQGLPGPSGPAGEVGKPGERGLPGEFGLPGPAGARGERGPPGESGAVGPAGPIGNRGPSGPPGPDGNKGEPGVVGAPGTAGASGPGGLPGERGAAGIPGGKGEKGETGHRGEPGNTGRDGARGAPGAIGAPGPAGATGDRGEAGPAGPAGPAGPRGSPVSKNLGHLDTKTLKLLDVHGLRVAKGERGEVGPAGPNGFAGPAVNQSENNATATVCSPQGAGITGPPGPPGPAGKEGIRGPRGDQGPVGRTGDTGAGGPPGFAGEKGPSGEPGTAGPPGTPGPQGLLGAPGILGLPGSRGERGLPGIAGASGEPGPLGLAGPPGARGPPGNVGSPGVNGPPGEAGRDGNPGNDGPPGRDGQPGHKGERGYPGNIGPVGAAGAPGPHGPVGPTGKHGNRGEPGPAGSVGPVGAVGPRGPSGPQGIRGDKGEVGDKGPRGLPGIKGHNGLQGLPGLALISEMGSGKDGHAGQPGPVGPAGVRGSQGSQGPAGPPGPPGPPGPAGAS

collagen I fibrillogenesis by turbidity at 500 nm, 37 °C, 1 μM fibrillogenesis-competent collagen I (with telopeptides) with increasing MMP-3(E200A); delay at a ratio of 0.5:1 to collagen I [1] [min]	Molecule	Delay of collagen fibrillogenesis relative to MMP-3(E200A) (collagen I)
50	mature MMP-3(E200A) (from UniProt P08254 100-477) (enzyme)	
	SPARC: matricellular calcium binding protein, secreted protein acidic and rich in cysteine (protein, UniProt P09486 18-303, looked up) SPARC: APQQEALPDETEVVEETVAEVTEVSVGANPVQVEVGEFDDGAEETEEEVVAENPCQNHHCKHGKVCELDENNTPMCVCQDPTSCPAPIGEFEKVCSNDNKTFDSSCHFFATKCTLEGTKKGHKLHLDYIGPCKYIPPCLDSELTEFPLRMRDWLKNVLVTLYERDEDNNLLTEKQKLRVKKIHENEKRLEAGDHPVELLARDFEKNYNMYIFPVHWQFGQLDQHPIDGYLSHTELAPLRAPLIPMEHCTTRFFETCDLDNDKYIALDEWAGCFGIKQKDIDKDLVI	comparably
